The text below walks through data of article PMC4405178 (Biochemistry, 2015).

In the test the target is T1, full-length Ste2p S95Y (Saccharomyces cerevisiae, UniProt D6VTK4 1-431, S95Y).
T1 sequence (looked up): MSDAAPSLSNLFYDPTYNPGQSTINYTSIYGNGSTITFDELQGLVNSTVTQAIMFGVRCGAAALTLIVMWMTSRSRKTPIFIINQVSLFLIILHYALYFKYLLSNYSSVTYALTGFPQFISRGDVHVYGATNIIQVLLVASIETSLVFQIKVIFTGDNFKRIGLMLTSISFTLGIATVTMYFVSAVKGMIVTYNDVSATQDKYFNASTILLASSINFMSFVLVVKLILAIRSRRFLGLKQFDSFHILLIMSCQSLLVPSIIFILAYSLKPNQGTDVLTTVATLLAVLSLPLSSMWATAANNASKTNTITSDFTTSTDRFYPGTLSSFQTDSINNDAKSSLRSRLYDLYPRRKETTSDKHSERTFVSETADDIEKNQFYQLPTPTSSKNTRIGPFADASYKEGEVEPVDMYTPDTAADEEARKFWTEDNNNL
The experiment in a line: flow cytometry on cells.

B1: [K^7(NBD),Nle^12] α-factor (peptide)
chain: WHWLQLKPGQPMY
modifications: NBD (7-nitrobenz-2-oxa-1,3-diazol-4-yl) conjugated to the lysine at position 7; norleucine at position 12 in place of methionine
Consider B1, for which the Kd worked out at 2.1 ± 1.5 nM.
